The text below walks through data of patent US20240317871A1 (IMMUNOMIC THERAPEUTICS, published 2024).

One experiment has as its target T1, murine HVEM (murine, UniProt Q80WM9 39-206, limits assumed).
T1 construct: also called Mouse
T1 sequence (looked up): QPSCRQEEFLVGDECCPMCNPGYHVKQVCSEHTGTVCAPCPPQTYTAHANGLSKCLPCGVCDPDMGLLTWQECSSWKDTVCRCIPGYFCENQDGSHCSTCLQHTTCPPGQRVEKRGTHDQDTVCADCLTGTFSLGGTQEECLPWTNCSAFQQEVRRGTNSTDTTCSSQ
Briefly: ELISA. A general note: ELISA stands for enzyme-linked immunosorbent assay.

The next experiment deals with T2, cynomolgus monkey HVEM (cynomolgus monkey, UniProt A0A2K5W0R1 39-203).
T2 sequence: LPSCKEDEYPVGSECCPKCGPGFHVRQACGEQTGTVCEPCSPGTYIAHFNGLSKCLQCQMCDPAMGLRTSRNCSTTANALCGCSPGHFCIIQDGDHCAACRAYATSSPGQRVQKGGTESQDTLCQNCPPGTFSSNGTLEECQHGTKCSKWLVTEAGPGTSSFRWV
Put plainly: ELISA.

For another experiment, the target named is T3, human HVEM (human, UniProt Q92956 39-202, limits assumed).
T3 sequence (looked up): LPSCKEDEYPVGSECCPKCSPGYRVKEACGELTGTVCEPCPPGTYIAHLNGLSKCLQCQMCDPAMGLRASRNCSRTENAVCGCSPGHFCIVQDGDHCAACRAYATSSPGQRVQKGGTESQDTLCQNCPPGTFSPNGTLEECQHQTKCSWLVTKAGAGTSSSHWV
Put plainly: ELISA.

For a further experiment, the target named is T4, His-tagged human HVEM (human, UniProt Q92956 39-202, limits assumed).
T4 construct: Analyte of the BLI assay, 200 nM in PBS; not shown: His tag
T4 sequence (looked up): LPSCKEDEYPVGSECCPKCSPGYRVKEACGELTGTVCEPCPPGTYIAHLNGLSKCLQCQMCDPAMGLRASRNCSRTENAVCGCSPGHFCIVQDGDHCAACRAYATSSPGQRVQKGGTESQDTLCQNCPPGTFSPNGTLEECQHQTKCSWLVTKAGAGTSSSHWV
Put plainly: BLI OctetRed96, mAb captured, 200 nM His-HVEM. As to the method: Binding of antibodies to HVEM may also be determined by bio-layer interferometry (BLI) on an OctetRed96@ system (Sartorius). (See http://www.fortebio.com/bli_technology.html for general description of a BLI assay.) For this experiment, murine anti-human HVEM antibodies were captured from culture supernatant using anti-mouse IgG Fc capture and immobilized to dip and read biosensors. Sensors were then dipped into a solution of 200 nM His-tagged human HVEM in phosphate-buffered saline (PBS). Probes were dipped into PBS assay buffer and the dissociation rate (koff) was measured. The association rate (kₒₙ) and affinity (KD) were determined by curve fitting analysis.

B1: Ab_018 (H5S14-21A19A) (antibody, V domains shown)
VH: QVQLQQPGSELVRPGASVKLSCKASGYTFTSYWMHWVKQRPGQGLEWIGNIYPGSGSTNYDEKFKSKATLTVDTSSSTAYMQLSSLTSEDSAVYYCTIYDGYYWGQGTLVTVSA
VL: DIQMTQSPASLSVSVGETVTITCRASENIYSNLAWYQQKQGKSPQLLVYAATNLADGVPSRFSGSGSGTQYSLKINSLQSEDFGSYYCQHFWGTPRTFGGGTKLEIK
notes: the values of that row are written under this molecule; also called Ab_18; Ab_018 and Ab_019
In the case of B1, the ELISA signal in the experiment with murine HVEM amounted to 0.043; with cynomolgus monkey HVEM, 0.059.

B2: Ab_014 (H5S14-15A12A) (antibody, V domains shown)
VH: QVQLKQSGPGLVQPSQSLSITCTVSGFSLTSYGVHWVRQSPGKGLEWLGVIWSGGSTDYNAAFICRLSISKDSSKSQVFFKMNSLQADDTAMYYCARNLGGSWVDYWGQGTSVTVSS
VL: ETTVTQSPASLSVATGEKVTIRCITSTDIDDDMNWYQQKPGEPPKLLISEGNTLRPGVPSRFSSSGYGTDFVFTIENTLSEDVADYYCLQSDNMPYTFGGGTKLEIK
notes: also called Ab_14
With B2, the figures for the ELISA signal in the experiment with murine HVEM, with human HVEM and in the experiment with cynomolgus monkey HVEM were 0.049, 0.05 and 0.064, respectively.

B3: Ab_059 (H5S19-3B10B) (antibody, V domains shown)
VH: QIQLVQSGPELKKPGETVKISCKASGYTFTNFGVNWVKQAPGKGLKWMGWINTYTGEPTYADDFKGRFAFSLETSASTAYLRINNLKNEDTATYFCARSFYKNYAFWGQGTILTVSS
VL: QIVLTQSPAIMSASPGEKVTLTCSASSSVDSSYLFWYQQKPGSSPKLWIYSTSNLASGVPARFSGSGSGTSYSLTISSMEAEDAASYFCHQWSSYPWTFGGGTILEI
notes: also called Ab_59
For the molecule B3, the ELISA signal worked out at 0.043 with murine HVEM and 0.462 with human HVEM.

B4: Ab_056 (H5S19-11A9B) (antibody, V domains shown)
VH: DVQLQESGPGLVNPSQSLSLTCTVTGYSITSDYAWNWIRQFPGNKLEWMGYISYSGNTGYNPSLKSRISITRDTSKNQFFLQLNSVTSEDTATYYCARWGLRIDYWGQGTTLTVSS
VL: DIKMTQSPSSMYASLGESVTITCKASQDINSYLSWFQQKPGKSPKTLIYRANRLVDGVPSRFSGSGSGQDYSLTISSLEFEDMGIYYCLQYDEFPFTFGSGTKLEMK
notes: also called Ab_56
Consider B4, for which the ELISA signal in the experiment with murine HVEM was 0.043; with cynomolgus monkey HVEM, 0.06.

B5: Ab_049 (H5S19-25A24A) (antibody, V domains shown)
VH: QVQLQQSGAELMKPGASVKISCKATGYTFSSYWIEWVKQRPGHGLEWIGEILPGSGSTNYNEKFKGKATFTADTSSNTAYMQLSSLTSEDSAVYYCARYPRWGKIDYWGQGTTLTVSS
VL: DIVMTQAAFSNPVTLGTSASISCRSSKSLLHSNGITYLYWYLQKPGQSPQLLIYQMSNLASGVPDRFSSSGSGTDFTLRISRVEAEDVGVYYCAQNLELPYTFGGGTKLEIK
notes: also called Ab_49
Regarding B5, the ELISA signal with murine HVEM stood at 0.044; with cynomolgus monkey HVEM it was 0.065.

B6: Ab_086 (H5S20-56A25A) (antibody, V domains shown)
VH: EVKLVESGGGLVKPGGSLKLSCAASGFTFSSYGMSWVRQTPEKRLEWVATISGGGSYTFYPDSVKGRFTISRDNAKNNLYLQVSSLRSEDTALYYCIYDGSYWGQGTLVTVSA
VL: not shown
notes: also called Ab_86
Turning to B6, the figures for the ELISA signal with murine HVEM and with cynomolgus monkey HVEM were 0.044 and 0.065, respectively.

B7: Ab_003 (H5S14-3A3A) (antibody, V domains shown)
VH: QIQLVQSGPELKKPGETVKISCKASGYTFTNYGVNWVKQAPGKDLKWMGWINTYTGEPTYADDFKGRFAFSLETSASTAYLQINNLKNEDMATYFCTSRSWVLWGQGTLVTVSA
VL: QIVLTQSPAIMSASLGEEITLTCSASSSVSYMQWYQQKSGTSPKLLIYSTSNLASGVPSRFSGSGSGTFYSLTISSVEAEDAADYYCHQWSSYPTFGGGTELEI
notes: also called Ab_3
For the molecule B7, the ELISA signal in the experiment with murine HVEM is 0.051; with cynomolgus monkey HVEM, 2.29.

B8: Ab_002 (H5S14-2A2A) (antibody, V domains shown)
VH: QVQLQQPGAELVKPGTSVKMSCKASGYTFTSYWMHWVKQRPGQGLEWIGDIYPGSDSTNYNEKFKSKATLTVDTSSSTAYMQLSSLTSEDSAVYYCARSGYYGSYLDYWGQGTTLTVSS
VL: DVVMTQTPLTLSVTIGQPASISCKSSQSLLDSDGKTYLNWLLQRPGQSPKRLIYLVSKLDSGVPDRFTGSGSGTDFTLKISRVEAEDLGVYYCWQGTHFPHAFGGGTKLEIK
notes: also called Ab_2
As to B8, the ELISA signal with murine HVEM was found to be 0.043; in the experiment with human HVEM, 2.8; in the experiment with cynomolgus monkey HVEM it was 1.98.

B9: Ab_016 (H5S14-17A15A) (antibody, V domains shown)
VH: QVQLQQSGAELVRPGTSVKMSCKAAGYTFTNYWIGWVKQRPGHGLEWIGDIYPGGGYTNYNEKFKGKATLTADTSSSTAYMQLSSLTSEDSAIYYCARNGNSLDYWGQGTTLTVSS
VL: SIVMTQTPKFLLVSAGDRVTITCKASQSVSNDVAWYQQKPGQSPKLLIYYESNRYTGVPDRFTGSGYGTDFTFTISTVQAEDLAVYFCQQDYSSPWTFGGGTKLEIK
notes: also called Ab_16
As to B9, the ELISA signal came out at 0.042 with murine HVEM, 0.047 with human HVEM and 0.061 with cynomolgus monkey HVEM.

B10: Ab_044 (H5S15-30A26A) (antibody, V domains shown)
VH: QVQLQQPGAELVKPGAPVKLSCKASGYTFTSYWMNWVKQRPGRGLEWIGRIDPSDSETHYNQKFKDKATLTVDKSSSTAYIQLSSLTSEDSAVYYCAREYYGNHFDYWGQGTTLTVSS
VL: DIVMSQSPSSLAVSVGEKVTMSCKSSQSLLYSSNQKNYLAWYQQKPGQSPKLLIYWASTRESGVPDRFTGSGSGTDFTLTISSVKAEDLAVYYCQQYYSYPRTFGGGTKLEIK
notes: also called Ab_44
The term Kd denotes the concentration at which binding is half-saturated. The term koff denotes the first-order rate constant of dissociation. One may read the kon as a measure of how fast the partners come together. On to B10, for which, in the experiment with human HVEM, the ELISA signal is 2.87. In the experiment with His-tagged human HVEM, this molecule displayed a Kd of 1.97 nM, an off-rate constant (koff) of 0.00605 s⁻¹ and an association rate constant (kon) of 3.08e+06 M⁻¹ s⁻¹.

B11: Ab_022 (H5S14-23A21A) (antibody, V domains shown)
VH: LVKTGASVKISCKASGYSFTGYYMHWVKQSHGKSLEWIGYISCYNGATSYNQKFKGKATFTVDTSSSTAYMQFNSLTSEDSAVYYCARTYYYGSSYGAMDYWGQGTSVTVSS
VL: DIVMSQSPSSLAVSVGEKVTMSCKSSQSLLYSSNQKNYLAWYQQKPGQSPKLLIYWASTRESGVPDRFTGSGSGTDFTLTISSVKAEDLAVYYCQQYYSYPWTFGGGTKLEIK
notes: also called Ab_22
For B11, the ELISA signal is 0.157 with human HVEM and 0.165 with cynomolgus monkey HVEM.

B12: Ab_015 (H5S14-16A13A) (antibody, V domains shown)
VH: EVQLVESGGGLVKPGGSLKLSCAASGFTFSDYYMYWVRQTPEKRLEWVATISDGGSYTYYPDSVKGRFTISRDNAKNNLYLQMSSLKSEDTAMYYCARDGNYYAMDYWGQGTSVTVSS
VL: DVLMTQTPLSLPVSLGDQASISCRSSQSIVHSNGNTYLEWYLQKPGQSPKLLIYKVSNRFSGVPDRFSGSGSGTDFTLKISRVEAEDLGVYYCFQGSHVPWTFGGGTKLEIK
notes: also called Ab_15
Regarding B12, the results for the ELISA signal with murine HVEM, with human HVEM and with cynomolgus monkey HVEM were 0.042, 0.045 and 0.058, respectively.

B13: Ab_057 (H5S19-5A7A) (antibody, V domains shown)
VH: DVKLVESGGGLVKPGGSLKLSCAASGFTFSSYTMSWVRQTPEKRLEWVATISSGGSYTYYPDSVKGRFTISRDNAKNTLYLQMSSLKSEDTAMYYCTRGDDYGFDYWGQGTTLTVSS
VL: DVLMTQTPLSLPVSLGDQASISCRSSQSIVHSNGNTYLEWYLQKPGQSPKLLIYKVSNRFSGVPDRFSGSGSGTDFTLKISRVEAEDLGVYYCFQGSHVPWTFGGGTKLEIK
notes: also called Ab_57
On to B13, for which the ELISA signal with murine HVEM amounted to 0.045; with cynomolgus monkey HVEM, 1.06.

B14: Ab_084 (H5S20-51A40A) (antibody, V domains shown)
VH: QVQLKQSGPGLVQPSQSLSITCTVSGFSLTSYGVHWVRQSPGKGLEWLGVIWRGGSTDYNAAFMSRLSITKDNSKSQVFFKMNSLQADDTAIYYCAKNRGYGEGYYAMDYWGQGTSVTVSS
VL: DIVMTQSQKFMSTSVGDRVSVTCKASQNVGTNVAWYQQKPGQSPKALIYSASYRYSGVPDRFTGSGSGTDFTLTISNVQSEDLAEYFCQQYNSYPLTFGAGTKLELK
notes: also called Ab_84
For B14, the ELISA signal is 0.043 in the experiment with murine HVEM and 0.061 with cynomolgus monkey HVEM.

B15: Ab_007 (H5S14-6A6A) (antibody, V domains shown)
VH: EVKLVESGGGLVQPGGSLRLSCATSGFTFTDYYMSWVRQTPGKALEWLGFIRNQANAYTTEYSVSVKGRFTISRDNSQSILYLQMNTLRVEDSATYYCARVPDYWGQGTTLTVSS
VL: DIQMTQSPASQSASLGESVTITCLASQTIGTWLAWYQQKPGKSPQLLIYAATSLADGVPSRFSGSGSGTKFSFKISSLQAEDFVSYYCQQLHSTPYTFGGGTKLEIK
notes: also called Ab_7
For the molecule B15, the results for the ELISA signal in the experiment with murine HVEM, with human HVEM and in the experiment with cynomolgus monkey HVEM were 0.042, 2.56 and 0.739, respectively.
